Source: article PMC314469, “Protein Interaction Networks by Proteome Peptide Scanning” (PLoS Biology, 2004)

B1: YIR019C 265-278 (peptide)
chain: TSSTKEKPTPPTTT
B2: YEL050C 91-104 (peptide)
chain: TQMKRLKPVSPGLR
B3: YDR310C 200-213 (peptide)
chain: TSSSRRGPGRPRKD
B4: YML020W 26-39 (peptide)
chain: TQSGRMGPSEPKHR
B5: YOR097C 144-157 (peptide)
chain: TSSLRKPPNGPSSV
B6: YHR209W 243-256 (peptide)
chain: TSWARDNPSKPDIA
B7: YOR181W 179-192 (peptide)
chain: TTKHKAPPPPPPTA
B8: YDR109C 25-38 (peptide)
chain: TSISRISPQDPEAK
B9: YDR515W 74-87 (peptide)
chain: TSNTKWTPITPSVI
B10: YOR227W 765-778 (peptide)
chain: TSGYKYFPQFPQLK
B11: YOR042W 151-164 (peptide)
chain: TQPVRKNPEAPARR

Biological target: T1, Boi1 SH3 (BOI1_YEAST), P38041
T1 chain: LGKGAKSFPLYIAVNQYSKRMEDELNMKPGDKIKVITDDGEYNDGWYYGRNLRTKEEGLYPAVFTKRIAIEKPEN
Assay: SPOT array

normalised SPOT signal, Boehringer light units (BLU); mean over the file's lines of this peptide	Binder
0	B1
2890	B2
418	B3
728	B4
29.2	B5
82.3	B6
-0	B7
95.3	B8
29.7	B9
95.1	B10
17200	B11

Biological target: T2, Boi2 SH3 (BOI2_YEAST), P39969
T2 chain: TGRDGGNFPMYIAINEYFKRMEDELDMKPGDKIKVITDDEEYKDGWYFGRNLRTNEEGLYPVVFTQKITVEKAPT
Assay: SPOT array

normalised SPOT signal, Boehringer light units (BLU); mean over the file's lines of this peptide	Binder
0.9	B1
1140	B2
23.6	B3
34.4	B4
17.3	B5
20.3	B6
20.8	B7
-0	B8
6.7	B9
32.8	B10
32.4	B11

Biological target: T3, Myo5 SH3 (MYO5_YEAST), Q04439
T3 chain: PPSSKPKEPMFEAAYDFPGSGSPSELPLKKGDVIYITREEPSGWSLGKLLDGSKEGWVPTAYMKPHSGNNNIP
Assay: SPOT array

normalised SPOT signal, Boehringer light units (BLU); mean over the file's lines of this peptide	Binder
118	B1
1450	B2
620	B3
456	B4
144	B5
81.6	B6
1680	B7
194	B8
142	B9
235	B10
232	B11

Biological target: T4, Rvs167 SH3 (RV167_YEAST), P39743
T4 chain: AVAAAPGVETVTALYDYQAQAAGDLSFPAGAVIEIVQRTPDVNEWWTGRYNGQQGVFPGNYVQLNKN
Assay: SPOT array

normalised SPOT signal, Boehringer light units (BLU); mean over the file's lines of this peptide	Binder
34.3	B1
1960	B2
269	B3
336	B4
455	B5
34.6	B6
80	B7
8.5	B8
35	B9
58.8	B10
410	B11

biological target: Sho1 SH3 (SHO1_YEAST), P40073; assay: SPOT array
Sequence (P40073 295-366): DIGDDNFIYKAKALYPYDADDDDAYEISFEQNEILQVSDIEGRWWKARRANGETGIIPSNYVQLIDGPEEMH

normalised SPOT signal, Boehringer light units (BLU); mean over the file's lines of this peptide	Binder
21	B1
417	B2
416	B3
78.4	B4
99	B5
40.9	B6
6.1	B7
29.1	B8
18.6	B9
36.2	B10
60.1	B11

Biological target: T5, Yfr024 SH3 (LSB3_YEAST), P43603
T5 chain: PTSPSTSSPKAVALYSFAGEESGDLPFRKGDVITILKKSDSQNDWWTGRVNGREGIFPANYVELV
Assay: SPOT array

normalised SPOT signal, Boehringer light units (BLU); mean over the file's lines of this peptide	Binder
58.6	B1
4080	B2
969	B3
637	B4
121	B5
260	B6
141	B7
20.2	B8
36.9	B9
134	B10
3700	B11

Biological target: T6, Yhr016c SH3 (YSC84_YEAST), P32793
T6 chain: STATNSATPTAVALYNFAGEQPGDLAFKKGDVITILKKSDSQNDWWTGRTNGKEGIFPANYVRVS
Assay: SPOT array

normalised SPOT signal, Boehringer light units (BLU); mean over the file's lines of this peptide	Binder
29.7	B1
634	B2
65	B3
109	B4
37.6	B5
49.1	B6
185	B7
19	B8
21	B9
20.3	B10
159	B11
